Results as given in article doi:10.1101/2021.05.24.445390 (bioRxiv, 2021).

B1: TT104-Fab (Fab, V domains shown)
VH: QLQLQESGPGLVRPSETLSLTCSVSDDSMGSSTYYWAWIRQPPGKGLEWIGNVYYNGVTYYNSSLESRLTLSIDPSKNQFSLILSSVTAADTAVYYCARQADNWFDPWGQGTLVTVSS
VL: IMMTQSPATLSVSPGERATLSCRASQSVGSDLAWYQQKPGQAPRLLIYGASYRATGIPARFSGGGSGTEFTLTISSMQSEDFAVYYCQQYYNWPPYTFGQGTKVEIK
B2: TT110-Fab (Fab, V domains shown)
VH: QVQLMQSGAEVQKPGASVKVSCQASGFTLNNYYIHWLRQAPGQGFEWMGIFNPSSGTRTYAQKFQGRISMTADASTTTLYMELSGLTSEDAGVYFCARIGGSTYGRLMTYYFDHWGQGTVVAVSS
VL: VLTQGPVTLSVSPGGRGTLSCRASRSISTTLAWYQQKPGQAPRLLIYGASTRATGIPARFTGSGSGTEFTLTISSLQSEDFAVYYCQQYNDWPVTFGQGTQVEVK

Biological target: Tetanus neurotoxin (TeNT) (Clostridium tetani strain Y-IV-3 (WS …, UniProt P04958))
Assay: SPR

Sequence of Tetanus neurotoxin (TeNT) (Clostridium tetani strain Y-IV-3 (P04958 1-457, chain 1 of 2): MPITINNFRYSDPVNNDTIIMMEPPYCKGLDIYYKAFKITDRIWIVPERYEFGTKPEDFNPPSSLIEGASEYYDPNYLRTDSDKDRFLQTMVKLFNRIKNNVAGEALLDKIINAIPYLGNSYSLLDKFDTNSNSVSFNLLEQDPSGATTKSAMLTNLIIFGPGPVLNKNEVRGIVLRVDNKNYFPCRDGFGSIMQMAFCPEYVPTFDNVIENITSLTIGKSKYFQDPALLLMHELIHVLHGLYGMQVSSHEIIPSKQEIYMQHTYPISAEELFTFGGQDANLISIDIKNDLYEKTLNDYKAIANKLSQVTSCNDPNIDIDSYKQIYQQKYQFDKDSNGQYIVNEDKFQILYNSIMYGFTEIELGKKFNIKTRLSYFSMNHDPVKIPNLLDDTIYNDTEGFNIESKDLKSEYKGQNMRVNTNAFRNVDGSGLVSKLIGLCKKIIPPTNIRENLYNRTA
Sequence of Tetanus neurotoxin (TeNT) (Clostridium tetani strain Y-IV-3 (P04958 458-1315, chain 2 of 2): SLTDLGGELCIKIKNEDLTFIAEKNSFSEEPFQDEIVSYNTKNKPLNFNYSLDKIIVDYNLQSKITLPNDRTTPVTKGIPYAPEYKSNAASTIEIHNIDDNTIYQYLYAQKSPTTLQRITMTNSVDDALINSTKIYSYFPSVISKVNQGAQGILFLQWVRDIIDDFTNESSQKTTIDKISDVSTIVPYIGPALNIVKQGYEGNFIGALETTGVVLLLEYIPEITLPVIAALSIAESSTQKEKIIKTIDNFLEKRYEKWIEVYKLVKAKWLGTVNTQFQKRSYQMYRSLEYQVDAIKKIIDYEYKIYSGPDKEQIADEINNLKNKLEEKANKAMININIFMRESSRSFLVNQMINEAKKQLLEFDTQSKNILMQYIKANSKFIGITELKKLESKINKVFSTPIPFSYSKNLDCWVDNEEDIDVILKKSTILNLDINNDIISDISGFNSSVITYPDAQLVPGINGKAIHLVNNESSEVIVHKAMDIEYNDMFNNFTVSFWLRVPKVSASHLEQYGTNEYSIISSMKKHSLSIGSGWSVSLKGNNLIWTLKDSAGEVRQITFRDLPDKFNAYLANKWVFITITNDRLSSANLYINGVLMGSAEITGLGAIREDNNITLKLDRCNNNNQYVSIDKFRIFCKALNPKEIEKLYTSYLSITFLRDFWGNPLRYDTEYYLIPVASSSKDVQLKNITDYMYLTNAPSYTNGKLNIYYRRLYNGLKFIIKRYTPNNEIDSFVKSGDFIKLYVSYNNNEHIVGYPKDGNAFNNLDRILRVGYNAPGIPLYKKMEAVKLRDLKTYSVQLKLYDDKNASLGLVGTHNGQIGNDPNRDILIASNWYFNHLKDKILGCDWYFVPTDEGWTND

Binder	Kd [nM]
B1	0.0067
B2	3
